Reference: patent publication US20160367623A1, “AGONISTS OF GUANYLATE CYCLASE USEFUL FOR THE TREATMENT OF GASTROINTESTINAL DISORDERS, INFLAMMATION, CANCER AND OTHER DISORDERS” (priority 2015, published 2016)
Bridge positions count the residues as written; N and C are the ends. Ends that are not written are not given here.

System: patients with chronic idiopathic constipation (CIC)
Test: Second phase 3 CIC trial: treatment emergent adverse events, safety

Asn^1-Asp^2-Glu^3-Cys^4-Glu^5-Leu^6-Cys^7-Val^8-Asn^9-Val^10-Ala^11-Cys^12-Thr^13-Gly^14-Cys^15-Leu^16 (NDECELCVNVACTGCL; disulfide 4-12, 7-15) [Plecanatide]
Influenza like illness: events E (Active Combined (N = 936)): 1
Influenza like illness: patients % (Active Combined (N = 936)): (0.1) %
Influenza like illness: patients (%) (Active Combined (N = 936)): (0.1) %
Influenza like illness: patients N (Active Combined (N = 936)): 1
Influenza: events E (Active Combined (N = 936)): 9
Influenza: patients % (Active Combined (N = 936)): (1.0) %
Influenza: patients N (Active Combined (N = 936)): 9
Injury, poisoning and procedural complications (SOC): events E (Active Combined (N = 936)): 19
Injury, poisoning and procedural complications (SOC): patients % (Active Combined (N = 936)): (1.7) %
Injury, poisoning and procedural complications (SOC): patients N (Active Combined (N = 936)): 16
Insomnia, events E (Active Combined (N = 936)): 3
Insomnia, patients (%) (Active Combined (N = 936)): (0.3) %
Insomnia, patients N (Active Combined (N = 936)): 3
Intervertebral disc disorder, Mild: events E (Active Combined (N = 936)): 0
Intervertebral disc disorder, Mild: patients N (Active Combined (N = 936)): 0
Intervertebral disc disorder, Moderate: events E (Active Combined (N = 936)): 0
Ligament sprain, events E (Active Combined (N = 936)): 2
Ligament sprain, patients (%) (Active Combined (N = 936)): (0.2) %
Ligament sprain, patients N (Active Combined (N = 936)): 2
Musculoskeletal and connective tissue disorders [System Organ Class], events E (Active Combined (N = 936)): 19
Musculoskeletal and connective tissue disorders [System Organ Class], patients (%) (Active Combined (N = 936)): (2.0) %
Musculoskeletal and connective tissue disorders [System Organ Class], patients N (Active Combined (N = 936)): 19
Musculoskeletal and connective tissue disorders, Mild: events E (Active Combined (N = 936)): 10
Musculoskeletal and connective tissue disorders, Mild: patients (%) (Active Combined (N = 936)): (1.1) %
Musculoskeletal and connective tissue disorders, Mild: patients N (Active Combined (N = 936)): 10
Musculoskeletal and connective tissue disorders, Moderate: events E (Active Combined (N = 936)): 9
Musculoskeletal and connective tissue disorders, Moderate: patients (%) (Active Combined (N = 936)): (1.0) %
Musculoskeletal and connective tissue disorders, Moderate: patients N (Active Combined (N = 936)): 9
Musculoskeletal and connective tissue disorders, Severe: events E (Active Combined (N = 936)): 0
Musculoskeletal and connective tissue disorders, Severe: patients N (Active Combined (N = 936)): 0
Musculoskeletal and connective tissue disorders: events E (Active Combined (N = 936)): 19
Musculoskeletal and connective tissue disorders: patients (%) (Active Combined (N = 936)): (2.0) %
Musculoskeletal and connective tissue disorders: patients N (Active Combined (N = 936)): 19
Musculoskeletal chest pain, Mild: events E (Active Combined (N = 936)): 1
Musculoskeletal chest pain, Mild: patients (%) (Active Combined (N = 936)): (0.1) %
Musculoskeletal chest pain, Mild: patients N (Active Combined (N = 936)): 1
Musculoskeletal chest pain, Moderate: events E (Active Combined (N = 936)): 0
Musculoskeletal chest pain, Moderate: patients N (Active Combined (N = 936)): 0
Musculoskeletal chest pain, Severe: events E (Active Combined (N = 936)): 0
Musculoskeletal chest pain, Severe: patients N (Active Combined (N = 936)): 0
Musculoskeletal chest pain: events E (Active Combined (N = 936)): 1
Musculoskeletal chest pain: patients (%) (Active Combined (N = 936)): (0.1) %
Musculoskeletal chest pain: patients N (Active Combined (N = 936)): 1
Musculoskeletal pain, Mild: events E (Active Combined (N = 936)): 1
Musculoskeletal pain, Mild: patients (%) (Active Combined (N = 936)): (0.1) %
Musculoskeletal pain, Mild: patients N (Active Combined (N = 936)): 1
Musculoskeletal pain, Moderate: events E (Active Combined (N = 936)): 1
Musculoskeletal pain, Moderate: patients (%) (Active Combined (N = 936)): (0.1) %
Musculoskeletal pain, Moderate: patients N (Active Combined (N = 936)): 1
Musculoskeletal pain, Severe: events E (Active Combined (N = 936)): 0
Musculoskeletal pain, Severe: patients N (Active Combined (N = 936)): 0
Musculoskeletal pain: events E (Active Combined (N = 936)): 2
Musculoskeletal pain: patients (%) (Active Combined (N = 936)): (0.2) %
Musculoskeletal pain: patients N (Active Combined (N = 936)): 2
SAE Musculoskeletal and connective tissue disorders, E events (Active Combined (N = 936)): 0
SAE Musculoskeletal and connective tissue disorders, N patients (Active Combined (N = 936)): 0
SAE Musculoskeletal and connective tissue disorders, No Reasonable Possibility, E events (Active Combined (N = 936)): 0
SAE Musculoskeletal and connective tissue disorders, No Reasonable Possibility, N patients (Active Combined (N = 936)): 0
SAE Musculoskeletal and connective tissue disorders, Reasonable Possibility, E events (Active Combined (N = 936)): 0
SAE Musculoskeletal and connective tissue disorders, Reasonable Possibility, N patients (Active Combined (N = 936)): 0
Skeletal injury, events E (Active Combined (N = 936)): 1
Skeletal injury, patients (%) (Active Combined (N = 936)): (0.1) %
Skeletal injury, patients N (Active Combined (N = 936)): 1
TE SAE: Musculoskeletal and connective tissue disorders, E events (Active Combined (N = 936)): 0
TE SAE: Musculoskeletal and connective tissue disorders, N patients (Active Combined (N = 936)): 0
TEAE Leading to Discontinuation: Infections and infestations, % patients (Active Combined (N = 936)): (0.1) %
TEAE Leading to Discontinuation: Infections and infestations, E events (Active Combined (N = 936)): 1
TEAE Leading to Discontinuation: Infections and infestations, N patients (Active Combined (N = 936)): 1
TEAE Leading to Discontinuation: Musculoskeletal and connective tissue disorders, E events (Active Combined (N = 936)): 0
TEAE Leading to Discontinuation: Musculoskeletal and connective tissue disorders, N patients (Active Combined (N = 936)): 0
TEAE Leading to Discontinuation: Viral infection, % patients (Active Combined (N = 936)): (0.1) %
TEAE Leading to Discontinuation: Viral infection, E events (Active Combined (N = 936)): 1
TEAE Leading to Discontinuation: Viral infection, N patients (Active Combined (N = 936)): 1
Musculoskeletal and connective tissue disorders [System Organ Class], events E (Plecanatide 3 mg (N = 467)): 8
Musculoskeletal and connective tissue disorders [System Organ Class], patients (%) (Plecanatide 3 mg (N = 467)): (1.7) %
Musculoskeletal and connective tissue disorders [System Organ Class], patients N (Plecanatide 3 mg (N = 467)): 8
Musculoskeletal and connective tissue disorders, Mild: events E (Plecanatide 3 mg (N = 467)): 4
Musculoskeletal and connective tissue disorders, Mild: patients (%) (Plecanatide 3 mg (N = 467)): (0.9) %
Musculoskeletal and connective tissue disorders, Mild: patients N (Plecanatide 3 mg (N = 467)): 4
Musculoskeletal and connective tissue disorders, Moderate: events E (Plecanatide 3 mg (N = 467)): 4
Musculoskeletal and connective tissue disorders, Moderate: patients (%) (Plecanatide 3 mg (N = 467)): (0.9) %
Musculoskeletal and connective tissue disorders, Moderate: patients N (Plecanatide 3 mg (N = 467)): 4
Musculoskeletal and connective tissue disorders, Severe: events E (Plecanatide 3 mg (N = 467)): 0
Musculoskeletal and connective tissue disorders, Severe: patients N (Plecanatide 3 mg (N = 467)): 0
Musculoskeletal and connective tissue disorders: events E (Plecanatide 3 mg (N = 467)): 8
Musculoskeletal and connective tissue disorders: patients (%) (Plecanatide 3 mg (N = 467)): (1.7) %
Musculoskeletal and connective tissue disorders: patients N (Plecanatide 3 mg (N = 467)): 8
Musculoskeletal chest pain, Mild: events E (Plecanatide 3 mg (N = 467)): 1
Musculoskeletal chest pain, Mild: patients (%) (Plecanatide 3 mg (N = 467)): (0.2) %
Musculoskeletal chest pain, Mild: patients N (Plecanatide 3 mg (N = 467)): 1
Musculoskeletal chest pain, Moderate: events E (Plecanatide 3 mg (N = 467)): 0
Musculoskeletal chest pain, Moderate: patients N (Plecanatide 3 mg (N = 467)): 0
Musculoskeletal chest pain, Severe: events E (Plecanatide 3 mg (N = 467)): 0
Musculoskeletal chest pain, Severe: patients N (Plecanatide 3 mg (N = 467)): 0
Musculoskeletal chest pain: events E (Plecanatide 3 mg (N = 467)): 1
Musculoskeletal chest pain: patients (%) (Plecanatide 3 mg (N = 467)): (0.2) %
Musculoskeletal chest pain: patients N (Plecanatide 3 mg (N = 467)): 1
Musculoskeletal pain, Mild: events E (Plecanatide 3 mg (N = 467)): 1
Musculoskeletal pain, Mild: patients (%) (Plecanatide 3 mg (N = 467)): (0.2) %
Musculoskeletal pain, Mild: patients N (Plecanatide 3 mg (N = 467)): 1
Musculoskeletal pain, Moderate: events E (Plecanatide 3 mg (N = 467)): 0
Musculoskeletal pain, Moderate: patients N (Plecanatide 3 mg (N = 467)): 0
Musculoskeletal pain, Severe: events E (Plecanatide 3 mg (N = 467)): 0
Musculoskeletal pain, Severe: patients N (Plecanatide 3 mg (N = 467)): 0
Musculoskeletal pain: events E (Plecanatide 3 mg (N = 467)): 1
Musculoskeletal pain: patients (%) (Plecanatide 3 mg (N = 467)): (0.2) %
Musculoskeletal pain: patients N (Plecanatide 3 mg (N = 467)): 1
Skeletal injury, events E (Plecanatide 3 mg (N = 467)): 0
Skeletal injury, patients N (Plecanatide 3 mg (N = 467)): 0
TE SAE: Musculoskeletal and connective tissue disorders, E events (Plecanatide 3 mg (N = 467)): 0
TE SAE: Musculoskeletal and connective tissue disorders, N patients (Plecanatide 3 mg (N = 467)): 0
TEAE Leading to Discontinuation: Musculoskeletal and connective tissue disorders, E events (Plecanatide 3 mg (N = 467)): 0
TEAE Leading to Discontinuation: Musculoskeletal and connective tissue disorders, N patients (Plecanatide 3 mg (N = 467)): 0
Musculoskeletal and connective tissue disorders [System Organ Class], events E (Plecanatide 6 mg (N = 469)): 11
Musculoskeletal and connective tissue disorders [System Organ Class], patients (%) (Plecanatide 6 mg (N = 469)): (2.3) %
Musculoskeletal and connective tissue disorders [System Organ Class], patients N (Plecanatide 6 mg (N = 469)): 11
Musculoskeletal and connective tissue disorders, Mild: events E (Plecanatide 6 mg (N = 469)): 6
Musculoskeletal and connective tissue disorders, Mild: patients (%) (Plecanatide 6 mg (N = 469)): (1.3) %
Musculoskeletal and connective tissue disorders, Mild: patients N (Plecanatide 6 mg (N = 469)): 6
Musculoskeletal and connective tissue disorders, Moderate: events E (Plecanatide 6 mg (N = 469)): 5
Musculoskeletal and connective tissue disorders, Moderate: patients (%) (Plecanatide 6 mg (N = 469)): (1.1) %
Musculoskeletal and connective tissue disorders, Moderate: patients N (Plecanatide 6 mg (N = 469)): 5
Musculoskeletal and connective tissue disorders, Severe: events E (Plecanatide 6 mg (N = 469)): 0
Musculoskeletal and connective tissue disorders, Severe: patients N (Plecanatide 6 mg (N = 469)): 0
Musculoskeletal and connective tissue disorders: events E (Plecanatide 6 mg (N = 469)): 11
Musculoskeletal and connective tissue disorders: patients (%) (Plecanatide 6 mg (N = 469)): (2.3) %
Musculoskeletal and connective tissue disorders: patients N (Plecanatide 6 mg (N = 469)): 11
Musculoskeletal chest pain, Mild: events E (Plecanatide 6 mg (N = 469)): 0
Musculoskeletal chest pain, Mild: patients N (Plecanatide 6 mg (N = 469)): 0
Musculoskeletal chest pain, Moderate: events E (Plecanatide 6 mg (N = 469)): 0
Musculoskeletal chest pain, Moderate: patients N (Plecanatide 6 mg (N = 469)): 0
Musculoskeletal chest pain, Severe: events E (Plecanatide 6 mg (N = 469)): 0
Musculoskeletal chest pain, Severe: patients N (Plecanatide 6 mg (N = 469)): 0
Musculoskeletal chest pain: events E (Plecanatide 6 mg (N = 469)): 0
Musculoskeletal chest pain: patients N (Plecanatide 6 mg (N = 469)): 0
Musculoskeletal pain, Mild: events E (Plecanatide 6 mg (N = 469)): 0
Musculoskeletal pain, Mild: patients N (Plecanatide 6 mg (N = 469)): 0
Musculoskeletal pain, Moderate: events E (Plecanatide 6 mg (N = 469)): 1
Musculoskeletal pain, Moderate: patients (%) (Plecanatide 6 mg (N = 469)): (0.2) %
Musculoskeletal pain, Moderate: patients N (Plecanatide 6 mg (N = 469)): 1
Musculoskeletal pain, Severe: events E (Plecanatide 6 mg (N = 469)): 0
Musculoskeletal pain, Severe: patients N (Plecanatide 6 mg (N = 469)): 0
Musculoskeletal pain: events E (Plecanatide 6 mg (N = 469)): 1
Musculoskeletal pain: patients (%) (Plecanatide 6 mg (N = 469)): (0.2) %
Musculoskeletal pain: patients N (Plecanatide 6 mg (N = 469)): 1
Skeletal injury, events E (Plecanatide 6 mg (N = 469)): 1
Skeletal injury, patients (%) (Plecanatide 6 mg (N = 469)): (0.2) %
Skeletal injury, patients N (Plecanatide 6 mg (N = 469)): 1
TE SAE: Musculoskeletal and connective tissue disorders, E events (Plecanatide 6 mg (N = 469)): 0
TE SAE: Musculoskeletal and connective tissue disorders, N patients (Plecanatide 6 mg (N = 469)): 0
TEAE Leading to Discontinuation: Musculoskeletal and connective tissue disorders, E events (Plecanatide 6 mg (N = 469)): 0
TEAE Leading to Discontinuation: Musculoskeletal and connective tissue disorders, N patients (Plecanatide 6 mg (N = 469)): 0
